From publication PMC10251477 (2023) come the findings set out here.

In assay [1] the target is T1, MBP-tagged R1441C RocCOR LRRK2.
T1 chain: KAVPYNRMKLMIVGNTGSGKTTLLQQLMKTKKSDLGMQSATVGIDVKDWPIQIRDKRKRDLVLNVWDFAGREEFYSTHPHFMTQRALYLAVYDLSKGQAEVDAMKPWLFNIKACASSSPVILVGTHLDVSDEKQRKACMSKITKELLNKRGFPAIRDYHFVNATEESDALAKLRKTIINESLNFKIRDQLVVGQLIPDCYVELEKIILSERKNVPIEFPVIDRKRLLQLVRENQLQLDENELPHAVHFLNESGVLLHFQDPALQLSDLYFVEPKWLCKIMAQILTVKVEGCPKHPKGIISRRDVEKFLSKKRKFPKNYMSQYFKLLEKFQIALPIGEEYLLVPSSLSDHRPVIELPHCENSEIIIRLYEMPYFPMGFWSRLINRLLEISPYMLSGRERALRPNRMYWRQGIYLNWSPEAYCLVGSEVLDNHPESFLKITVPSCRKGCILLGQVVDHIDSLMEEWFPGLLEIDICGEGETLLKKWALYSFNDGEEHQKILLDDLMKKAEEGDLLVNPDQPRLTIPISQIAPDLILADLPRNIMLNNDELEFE
Briefly: FP.

The target in assay [2] is T2, MBP-tagged RocCOR LRRK2 (wild type).
T2 chain: T1 chain with C114R
Briefly: FP.

Where a chain is given by its changes, count along the chain named. Names and notes keep the numbering of the source. Bridge positions count the residues as written; N and C are the ends. Square brackets hold non-standard residues; d marks the D form. Primed or numbered codes have the meaning given here. Ends that are not written are not given here. 5/6FAM = 5/6-carboxyfluorescein; S5 = C=CCCC[C@](C)(N)C(=O)O; PEG3′ = not defined here

As to {FAM-PEG3′}-KGEGE[S5]LLK[S5]WALYSFNDGEKH[S5]KKL[S5]KL (staple 6-10, 23-27) [FAM ECOR (doubly stapled Elongated COR peptide)], the Kd in assay [1] worked out at 0.024 µM; in assay [2], 0.045 µM.

{5/6FAM-PEG3′}-KGEGE[S5]LLK[S5]WGLYSFNDGEKH[S5]KKL[S5]KL (staple 6-10, 23-27) [FAM ECOR A12G (doubly stapled Elongated COR peptide with A12G)]: the dissociation constant (Kd) was 0.032 µM in assay [1] and 0.057 µM in assay [2].
